Laboratory results taken from patent publication US12209122.

Molecular target: the two scFvs (16-22-H05-sc02 and 16-22-H05-sc04)
Assay: competition ELISA, coated scFv, biotinylated TNFα, unlabeled TNFβ against unlabeled TNFα

selectivity for binding to TNFα over TNFβ (fold): > 20000 fold
B1: recombinant human TNFβ (Peprotech, Cat. No. 300-01B) (ligand, UniProt P01374 35-205, looked up)
chain: LPGVGLTPSAAQTARQHPKMHLAHSTLKPAAHLIGDPSKQNSLLWRANTDRAFLQDGFSLSNNSLLVPTSGIYFVYSQVVFSGKAYSPKATSSPLYLAHEVQLFSSQYPFHVPLLSSQKMVYPGLQEPWLHSMYHGAAFQLTQGDQLSTHTDGIPHLVLSPSTVFFGAFAL
